Patent publication US20020177203A1, “Alpha2 subunit of prolyl 4-hydroxylase” (priority 1996, published 2002)

B1: human type 1 prolyl 4-hydroxylase tetramer (α12β2) (Homo sapiens) (protein)
chain: HPGFFTSIGQMTDLIHTEKDLVTSLKDYIKAEEDKLEQIKKWAEKLDRLTSTATKDPEGFVGHPVNAFKLMKRLNTEWSELENLVLKDMSDGFISNLTIQRQYFPNDEDQVGAAKALLRLQDTYNLDTDTISKGNLPGVKHKSFLTAEDCFELGKVAYTEADYYHTELWMEQALRQLDEGEISTIDKVSVLDYLSYAVYQQGDLDKALLLTKKLLELDPEHQRANGNLKYFEYIMAKEKDVNKSASDDQSDQKTTPKKKGVAVDYLPERQKYEMLCRGEGIKMTPRRQKKLFCRYHDGNRNPKFILAPAKQEDEWDKPRIIRFHDIISDAEIEIVKDLAKPRLRRATISNPITGDLETVHYRISKSAWLSGYENPVVSRINMRIQDLTGLDVSTAEELQVANYGVGGQYEPHFDFARKDEPDAFKELGTGNRIATWLFYMSDVSAGGATVFPEVGASVWPKKGTAVFWYNLFASGEGDYSTRHAACPVLVGNKWVSNKWLHERGQEFRRPCTLSELE
notes: made in house; host or cells: Spodoptera frugiperda Sf9 insect cells (baculovirus co-infection); 0.1% Triton X-100 extract
B2: mouse/human type 2 prolyl 4-hydroxylase tetramer (α22β2) (Mus musculus) (protein)
chain: WVQAEFFTSIGHMTDLIYAEKDLVQSLKEYILVEEAKLAKIKSWASKMEALTSRSAADPEGYLAHPVNAYKLVKRLNTDWPALGDLVLQDASAGFVANLSVQRQFFPTDEDESGAARALMRLQDTYKLDPDTISRGELPGTKYQAMLSVDDCFGLGRSAYNEGDYYHTVLWMEQVLKQLDAGEEATVTKSLVLDYLSYAVFQLGDLHRAVELTRRLLSLDPSHERAGGNLRYFERLLEEERGKSLSNQTDAGLATQENLYERPTDYLPERDVYESLCRGEGVKLTPRRQKKLFCRYHHGNRVPQLLIAPFKEEDEWDSPHIVRYYDVMSDEEIERIKEIAKPKLARATVRDPKTGVLTVASYRVSKSSWLEEDDDPVVARVNRRMQHITGLTVKTAELLQVANYGMGGQYEPHFDFSRSDDEDAFKRLGTGNRVATFLNYMSDVEAGGATVFPDLGAAIWPKKGTAVFWYNLLRSGEGDYRTRHAACPVLVGCKWVSNKWFHERGQEFLRPCGTTEVD
notes: the cDNA clones, considered in combination, cover the whole coding region of the mouse α2 subunit; made in house; host or cells: Spodoptera frugiperda Sf9 insect cells (baculovirus pVL1392 construct, co-infection with PDI/β virus); 0.1% Triton X-100 extract

What was measured:
[1] = substrate: O=C1O[C@H]([C@@H](O)CO)C(O)=C1O; test: Prolyl 4-hydroxylase activity assay (decarboxylation of 2-oxo[1-14C]glutarate), type 1 enzyme; format: biochemical, human; details: other: α12β2, recombinant enzyme from insect cells, 0.1% Triton X-100 extract; pH 7.8
[2] = substrate: O=C1O[C@H]([C@@H](O)CO)C(O)=C1O; test: Prolyl 4-hydroxylase activity assay (decarboxylation of 2-oxo[1-14C]glutarate), type 2 enzyme; format: biochemical; details: other: α22β2 (mouse α2, human PDI/β), recombinant enzyme from insect cells; pH 7.8

Protein	Km [1] [µM]	Km [2] [µM]
B1	330	
B2		340
